Measured values from the supplement of paper PMC5998384.

How the values were obtained:
HeLa Kyoto [1] = assay: solubility in G1/S (NP-40 vs SDS abundance) (log2 ratio); higher = more soluble; conditions: cell cycle stage: G1/S
HeLa Kyoto [2] = assay: solubility change mitosis vs G1/S (difference of NP-40 vs SDS log2 ratios) (log2 ratio difference); higher = more soluble in mitosis
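For solubility change mitosis vs G1/S (difference of NP-40 vs SDS log2 ratios) in this document: synchronized HeLa Kyoto cells (double thymidine block for G1/S, nocodazole release for mitosis), protein amounts in NP-40 versus SDS lysates quantified by mass spectrometry, three biological replicates.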
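For solubility in G1/S (NP-40 vs SDS abundance) in this document: HeLa Kyoto cells arrested at G1/S by double thymidine block, proteins quantified by TMT10plex mass spectrometry in mild NP-40 versus SDS extracts, three biological replicates.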

## MNKNTSTVVSPSLLEKDPAFQMITIAKETGLGLKVLGGINRNEGPLVYIQEIIPGGDCYKDGRLKPGDQLVSVNKESMIGVSFEEAKSIITGAKLRLESAWEIAFIRQKSDNIQPENLSCTSLIEASGEYGPQASTLSLFSSPPEILIPKTSSTPKTNNDILSSCEIKTGYNKTVQIPITSENSTVGLSNTDVASAWTENYGLQEKISLNPSVRFKAEKLEMALNYLGIQPTKEQHQALRQQVQADSKGTVSFGDFVQVARNLFCLQLDEVNVGAHEISNILDSQLLPCDSSEADEMERLKCERDDALKEVNTLKEKLLESDKQRKQLTEELQNVKQEAKAVVEETRALRSRIHLAEAAQRQAHGMEMDYEEVIRLLEAKITELKAQLADYSDQNKESVQDLKKRIMVLDCQLRKSEMARKTFEASTEKLLHFVEAIQEVFSDNSTPLSNLSERRAVLASQTSLTPLGRNGRSIPATLALESKELVKSVRALLDMDCLPYGWEEAYTADGIKYFINHVTQTTSWIHPVMSVLNLSRSEENEEDCSRELPNQKS [STXBP4]
HeLa Kyoto [1]
  solubility in G1/S (log2): 0.308
HeLa Kyoto [2]
  solubility change mitosis (log2): -0.138

## MDPRVAWIQPEQKGPANALWMQIWETSQGVGRGGSGFASYFCLNSPALDTAAAAGAAGRGSGGLGPALPAASPPPPGPTAPAALPPALLTALGPAAEGARRLHKSPSLSSSSSSSSSNAESGTESPGCSSSSSSSASLGRPGGGRGGAFFNFADGAPSAPGTANGHPGPRGPAPAGSPSQHQFHPGRRKRENKASTYGLNYLLSGSRAAALSGGGGPGAQAPRPGTPWKSRAYSPGIQGLHEEIIDFYNFMSPCPEEAAMRREVVKRIETVVKDLWPTADVQIFGSFSTGLYLPTSDIDLVVFGKWERPPLQLLEQALRKHNVAEPCSIKVLDKATVPIIKLTDQETEVKVDISFNMETGVRAAEFIKNYMKKYSLLPYLILVLKQFLLQRDLNEVFTGGISSYSLILMAISFLQLHPRIDARRADENLGMLLVEFFELYGRNFNYLKTGIRIKEGGAYIAKEEIMKAMTSGYRPSMLCIEDPLLPGNDVGRSSYGAMQVKQVFDYAYIVLSHAVSPLARSYPNRDAESTLGRIIKVTQEVIDYRRWIKEKWGSKAHPSPGMDSRIKIKERIATCNGEQTQNREPESPYGQRLTLSLSSPQLLSSGSSASSVSSLSGSDVDSDTPPCTTPSVYQFSLQAPAPLMAGLPTALPMPSGKPQPTTSRTLIMTTNNQTRFTIPPPTLGVAPVPCRQAGVEGTASLKAVHHMSSPAIPSASPNPLSSPHLYHKQHNGMKLSMKGSHGHTQGGGYSSVGSGGVRPPVGNRGHHQYNRTGWRRKKHTHTRDSLPVSLSR [PAPD7]
HeLa Kyoto [1]
  solubility in G1/S (log2): -0.21
HeLa Kyoto [2]
  solubility change mitosis (log2): 0.0856

## EVPL
HeLa Kyoto [1]
  solubility in G1/S (log2): -0.382
HeLa Kyoto [2]
  solubility change mitosis (log2): 0.319

## MSKGRAEAAAGAAGILLRYLQEQNRPYSSQDVFGNLQREHGLGKAVVVKTLEQLAQQGKIKEKMYGKQKIYFADQDQFDMVSDADLQVLDGKIVALTAKVQSLQQSCRYMEAELKELSSALTTPEMQKEIQELKKECAGYRERLKNIKAATNHVTPEEKEQVYRERQKYCKEWRKRKRMATELSDAILEGYPKSKKQFFEEVGIETDEDYNVTLPDP [PSMC3IP]
HeLa Kyoto [1]
  solubility in G1/S (log2): 0.125
HeLa Kyoto [2]
  solubility change mitosis (log2): 0.072

## MFNRAVSRLSRKRPPSDIHDSDGSSSSSHQSLKSTAKWAASLENLLEDPEGVKRFREFLKKEFSEENVLFWLACEDFKKMQDKTQMQEKAKEIYMTFLSSKASSQVNVEGQSRLNEKILEEPHPLMFQKLQDQIFNLMKYDSYSRFLKSDLFLKHKRTEEEEEDLPDAQTAAKRASRIYNT [RGS10]
HeLa Kyoto [1]
  solubility in G1/S (log2): 0.563
HeLa Kyoto [2]
  solubility change mitosis (log2): 0.405

## MAAALPRTLGELQLYRILQKANLLSYFDAFIQQGGDDVQQLCEAGEEEFLEIMALVGMASKPLHVRRLQKALRDWVTNPGLFNQPLTSLPVSSIPIYKLPEGSPTWLGISCSSYERSSNAREPHLKIPKCAATTCVQSLGQGKSDVVGSLALQSVGESRLWQGHHATESEHSLSPADLGSPASPKESSEALDAAAALSVAECVERMAPTLPKSDLNEVKELLKTNKKLAKMIGHIFEMNDDDPHKEEEIRKYSAIYGRFDSKRKDGKHLTLHELTVNEAAAQLCVKDNALLTRRDELFALARQISREVTYKYTYRTTKSKCGERDELSPKRIKVEDGFPDFQDSVQTLFQQARAKSEELAALSSQQPEKVMAKQMEFLCNQAGYERLQHAERRLSAGLYRQSSEEHSPNGLTSDNSDGQGERPLNLRMPNLQNRQPHHFVVDGELSRLYPSEAKSHSSESLGILKDYPHSAFTLEKKVIKTEPEDSR [NAB1]
HeLa Kyoto [1]
  solubility in G1/S (log2): 0.187
HeLa Kyoto [2]
  solubility change mitosis (log2): 0.105
